From PMC6555848

Biological target: fluorescein-labeled phospho-Tyr peptide derived from the EPO receptor (FAM-GpYLVLDKW)
Test: fluorescence polarisation; 10 nM FAM-labelled peptide, increasing STAT5B protein; 20 mM HEPES, 50 mM NaCl, 0.1% NP-40 substitute, 10% DMSO; 1 h at room temperature; 1:1 model; pH of the Kd values printed in the text not stated (pH 6.8, 7.25, 7.5 or 7.9 were used)

Substance: STAT5B^N642A (from UniProt P51692 1-787) (natural protein)
- Kd: 612 nM

Substance: STAT5B^N642Q (from UniProt P51692 1-787) (natural protein)
- Kd: 229 nM

Substance: STAT5B^N642D (from UniProt P51692 1-787) (natural protein)
- Kd: 261 nM
